Data from publication PMC5871871 (Autophagy, 2013).
Read-outs that look alike come from different tables or passages of the source.

B1: Atg17 (recombinant, His-MBP tag removed by TEV), in the untagged Atg17-Atg31-Atg29 complex (natural protein, S. cerevisiae, UniProt Q06410 1-417, looked up)
chain: MNEADVTKFVNNARKTLTDAQLLCSSANLRIVDIKKKLSSWQLSISKLNFLIVGLRQQGKFLYTILKEGIGTKLIQKQWNQAVLVVLVDEMKYWQYEITSKVQRLDGIVNELSISEKDDTDPSKLGDYISRDNVNLLNDKLKEVPVIERQIENIKLQYENMVRKVNKELIDTKLTDVTQKFQSKFGIDNLMETNVAEQFSRELTDLEKDLAEIMNSLTQHFDKTLLLQDKKIDNDEREELFKVVQGDDKELYNIFKTLHEVIDDVDKTILNLGQFLQAKIKEKTELHSEVSEIINDFNRNLEYLLIFKDISNLIDSFKNSCTQDIQTTKELCEFYDNFEESYGNLVLEAKRRKDVANRMKTILKDCEKQLQNLDAQDQEERQNFIAENGTYLPETIWPGKIDDFSSLYTLNYNVKNP
B2: His-MBP-tagged Atg17 (natural protein, S. cerevisiae, UniProt Q06410 1-417, looked up)
chain: MNEADVTKFVNNARKTLTDAQLLCSSANLRIVDIKKKLSSWQLSISKLNFLIVGLRQQGKFLYTILKEGIGTKLIQKQWNQAVLVVLVDEMKYWQYEITSKVQRLDGIVNELSISEKDDTDPSKLGDYISRDNVNLLNDKLKEVPVIERQIENIKLQYENMVRKVNKELIDTKLTDVTQKFQSKFGIDNLMETNVAEQFSRELTDLEKDLAEIMNSLTQHFDKTLLLQDKKIDNDEREELFKVVQGDDKELYNIFKTLHEVIDDVDKTILNLGQFLQAKIKEKTELHSEVSEIINDFNRNLEYLLIFKDISNLIDSFKNSCTQDIQTTKELCEFYDNFEESYGNLVLEAKRRKDVANRMKTILKDCEKQLQNLDAQDQEERQNFIAENGTYLPETIWPGKIDDFSSLYTLNYNVKNP

What was measured:
[1] = molecular target: the molecule itself; test: negative-stain single-particle EM
[2] = molecular target: the molecule itself; test: negative-stain single-particle EM; remark: listed apart in the source

Row | Protein | stoichiometry N [1] | stoichiometry N [2]
1 | B1 | 2 | –
2 | B2 | – | 2
